The text below walks through data of patent publication US20170088603A1.

In test [1] the target is Human FcRn with human β2M on MDCK II clone 15 cells (human) (UniProt P55899).
Test [2] has the same target. In words: cell-based or functional assay.

Human FcRn with human β2M on MDCK II clone 15 cells (human), sequence (P55899 24-365, chain 1 of 2): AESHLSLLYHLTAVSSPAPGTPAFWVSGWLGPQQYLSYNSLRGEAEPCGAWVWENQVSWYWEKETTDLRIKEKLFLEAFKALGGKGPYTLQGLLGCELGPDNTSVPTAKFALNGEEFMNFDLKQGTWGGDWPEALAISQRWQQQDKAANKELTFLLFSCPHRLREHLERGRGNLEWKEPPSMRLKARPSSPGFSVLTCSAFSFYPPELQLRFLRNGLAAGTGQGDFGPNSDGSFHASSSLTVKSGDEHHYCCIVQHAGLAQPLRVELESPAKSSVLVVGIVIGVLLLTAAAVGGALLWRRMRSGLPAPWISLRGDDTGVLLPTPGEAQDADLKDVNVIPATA
Human FcRn with human β2M on MDCK II clone 15 cells (human), sequence (P61769 21-119, chain 2 of 2, further chain): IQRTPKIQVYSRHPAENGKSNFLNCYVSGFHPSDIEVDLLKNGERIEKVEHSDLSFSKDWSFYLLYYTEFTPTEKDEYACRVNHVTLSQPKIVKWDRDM
IgG4 Fc IgM tp L309, sequence (P01861 other isoform, or with tags, fused parts or gaps limits assumed): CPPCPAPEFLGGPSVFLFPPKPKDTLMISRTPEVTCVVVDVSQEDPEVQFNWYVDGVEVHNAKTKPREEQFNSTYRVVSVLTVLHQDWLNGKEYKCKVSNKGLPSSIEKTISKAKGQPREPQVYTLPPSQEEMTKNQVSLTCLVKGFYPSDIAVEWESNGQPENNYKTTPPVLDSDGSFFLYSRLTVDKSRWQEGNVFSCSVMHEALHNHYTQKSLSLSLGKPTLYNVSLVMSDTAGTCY

For the substance “IgG1 Fc IgM tp L309 (from UniProt P0DOX5 228-449) (Fc fusion)”, the EC50, inhibition of FcRn mediated IgG recycling (cell lysates), percentage inhibition relative to the positive control; blocked ligand biotinylated human IgG [upper panel (cell lysates] in test [1] was found to be 0.37 µg/mL. In test [2], this substance had a Blockade of IgG intracellular uptake EC50 of 4.4 µg/mL and a Blockade of IgG recycling EC50 of 0.33 µg/mL.
As for IgG1 IgM tail-piece, H310L (Fc fusion), the Blockade of IgG recycling (% inhibition at 100 µg/ml) in test [2] was 45.
In test [2], IgG1 IgM tail-piece, T307A (Fc fusion) yielded a Blockade of IgG intracellular uptake EC50 of 0.54 µg/mL and a Blockade of IgG recycling EC50 of 0.35 µg/mL.
In test [2], IgG1 IgM tail-piece, V308F (Fc fusion) had a Blockade of IgG intracellular uptake EC50 of 0.12 µg/mL and a Blockade of IgG recycling EC50 of 0.073 µg/mL.
The matching figures for IgG1 IgM tail-piece, V308P (Fc fusion): 0.34 µg/mL and 0.55 µg/mL.
In the case of “IgG4 Fc IgM tp L309 (from UniProt P01861 106-325) (Fc fusion)”, in test [2], the Blockade of IgG intracellular uptake EC50 is 5.9 µg/mL and the Blockade of IgG recycling EC50 worked out at 1 µg/mL.
For IgG4 IgM tail-piece, T307A (Fc fusion), in test [2], the Blockade of IgG intracellular uptake EC50 came out at 0.5 µg/mL.
Turning to IgG4 IgM tail-piece, V308F (Fc fusion), in test [2], the Blockade of IgG intracellular uptake EC50 was 0.42 µg/mL and the Blockade of IgG recycling EC50 stood at 0.56 µg/mL.
In test [2], IgG4 IgM tail-piece, V308P (Fc fusion) gave a Blockade of IgG intracellular uptake EC50 of 0.51 µg/mL and a Blockade of IgG recycling EC50 of 0.42 µg/mL.
